Test results published in patent US20090010911A1, “METHODS AND COMPOSITIONS FOR AFFECTING CYCLOPHILIN A REGULATION OF KINASES IN MODULATING CELLULAR ACTIVITIES” (IOWA STATE UNIVERSITY RESEARCH FOUNDATION, INC., priority 2007, published 2009).

Target: T1, Itk full-length enzyme (Mus musculus, UniProt Q03526)
T1 construct: Full-length Itk, Btk and Tec and the Itk kinase domain fragments were PCR amplified; made in house; host or cells: Sf9 insect cells (baculovirus), co-infected 1:1 with Lck baculovirus
T1 sequence (Q03526 1-625): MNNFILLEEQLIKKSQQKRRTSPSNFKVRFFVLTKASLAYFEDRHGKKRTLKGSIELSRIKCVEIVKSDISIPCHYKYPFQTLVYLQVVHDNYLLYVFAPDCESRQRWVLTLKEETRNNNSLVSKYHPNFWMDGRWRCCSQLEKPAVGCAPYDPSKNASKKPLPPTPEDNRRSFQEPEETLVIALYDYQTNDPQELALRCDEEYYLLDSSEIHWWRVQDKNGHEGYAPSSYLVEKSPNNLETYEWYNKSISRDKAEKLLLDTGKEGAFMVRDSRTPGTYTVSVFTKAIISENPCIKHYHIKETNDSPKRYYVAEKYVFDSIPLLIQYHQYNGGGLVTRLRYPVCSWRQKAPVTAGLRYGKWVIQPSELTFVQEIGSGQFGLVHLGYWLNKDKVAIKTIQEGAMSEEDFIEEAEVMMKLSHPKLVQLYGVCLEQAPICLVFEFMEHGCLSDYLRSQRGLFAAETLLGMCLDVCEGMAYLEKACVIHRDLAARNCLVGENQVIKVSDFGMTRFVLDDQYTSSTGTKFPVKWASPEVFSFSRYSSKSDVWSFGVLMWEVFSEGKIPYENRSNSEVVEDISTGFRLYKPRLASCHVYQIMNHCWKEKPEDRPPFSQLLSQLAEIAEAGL
Assay: In vitro kinase assay with western blotting, phosphorylation of SH2 domain-containing substrates with added free SH2 domain or CypA
Type: biochemical
Protocol: Substrate used in each experiment is indicated above each set of blots. 4(a) (left) Itk 32 substrate was incubated with Itk full-length enzyme as before (lane 1), or with Itk 32 domain:free Itk SH2 domain in ratios of 1:10, 1:25 or 1:50 (lanes 2-4, respectively) or equivalent ratios of PI3K N-terminal SH2 domain (lanes 5-7) and subjected to an in vitro kinase assay. […] Coomassie stain and an anti-FLAG blot (bottom panels) show protein levels. (right) The PLCγ1 SH2 domain competes with the PLCγ1 substrate in a similar manner. Lane 1 contains only Itk enzyme and PLCγ1 SH2C-Y783-substrate without additional free SH2 domain. Ratios of free SH2 domain to substrate are 1:5, 1:10 or 1:50 in lanes 2-4, respectively and equivalent ratios of PI3K SH2 domain are used in lanes 5-7. Coomassie stain of the gel and an anti-Itk blot (bottom panels) show protein levels. 4(b) Same experiment as shown in (a) using the Grb2 SH2 domain as a control. (left) Itk 32 substrate was incubated with Itk full-length enzyme (lane 1), or with Itk 32 domain:free Itk SH2 domain in ratios of 1:10 and 1:25 (lanes 2 & 3) or equivalent ratios of Grb2 SH2 domain (lanes 4 & 5) and subjected to an in vitro kinase assay. (right) Identical experiment following PLCγ1 substrate phosphorylation in the presence of the PLCγ1 and Grb2 SH2 domains. Lane 1 is PLCγ1 substrate alone; lanes 2 & 3 are PLCγ1 substrate:PLCγ1 SH2 domain in a 1:10 and 1:25 ratio, respectively and lanes 4 & 5 are identical ratios of PLCγ1 substrate:Grb2 SH2 domain. 4(c) The Itk SH2 domain competes with autophosphorylation of Y180 within full length Itk. For lanes 2-4, the amount of free SH2 domain is the same as used in panel (a), lanes 2-4. No exogenous SH2 domain has been added in lane 1 and full length Itk is both the enzyme and the substrate. Coomassie stain and an anti-FLAG blot (bottom panels) show protein levels. […] Initial velocities are shown for phosphorylation of peptide B (sequence shown in FIG. 5a) by full length Itk in the absence (column 1) and presence (column 2 and 3) of Itk SH2 domain. […]

Molecule | autophosphorylation of Tyr 180 within full length Itk upon addition of free SH2 domain (full length Itk is both enzyme and substrate) | inhibition of Itk 32 substrate phosphorylation (Y180) by free SH2 domain (substrate:free SH2 domain ratios 1:10, 1:25, 1:50) | inhibition of PLCγ1 SH2C-Y783- substrate phosphorylation by free SH2 domain (substrate:free SH2 domain ratios 1:5 to 1:50)
Itk SH2 domain: isolated exogenous SH2 domain of Itk, purified from bacteria (protein) EWYNKSISRDKAEKLLLDTGKEGAFMVRDSRTPGTYTVSVFTKAIISENPCIKHYHIKETNDSPKRYYVAEKYVFDSIPLLIQYHQYNGGGLVTRLRYPVCSWRQKA | greatly diminished | inhibits substrate phosphorylation | 
PLCγ1 SH2C domain: isolated carboxy-terminal SH2 domain of PLCγ1 (protein) QTNAHESKEWYHASLTRAQAEHMLMRVPRDGAFLVRKRNEPNSYAISFRAEGKIKHCRVQQEGQTVMLGNSEFDSLVDLISYYEKHPLYRKMKLRYPI |  |  | inhibits substrate phosphorylation
